Results reported in US20070042970A1, “Folate-modified cholesterol-bearing pullulan as a drug carrier” (priority 2005, published 2007).

Columns and labels:
[1] = type: physicochemical
Procedure: For example, 5.0 mg of FA-CHP can simply complex with 0.01 mg of DOX. Complexes of DOX with a mixture of FA-CHP and CHP are denoted as FA-CHP-CHP-DOX hereafter.

TIG-1-20 cells = assay: Cell counting experiment (trypan blue, hematocytometer); type: cell-based; settings: 0.2 mg/L DOX; at least for 2 days; folate-depleted DMEM
Procedure: Cells of either KB or TIG-1-20 were plated in 6 well cultivation plates and preincubated for 2-3 days, and each cultivation medium was replaced with new one (1.98 ml) just before the addition of anticancer reagents (0.02 ml). At the time of the addition, cell densities were about 5×10^4/ml for TIG-1-20, and about 15×10^4/ml for KB (each ca. 20-25% of their confluent states). The additives mainly used were; Control 1: PBS, Control 2 (FC): FA-CHP (1 mg)-CHP (4 mg) complex solution in 1 ml PBS, DOX 1: 0.02 mg doxorubicin/ml-PBS, DOX 2: 0.03 mg doxorubicin/ml-PBS, FA-CHP-CHP-DOX 1 (FCD 1): FA-CHP (1 mg)-CHP (4 mg)-DOX (0.02 mg) in 1 ml PBS, FA-CHP-CHP-DOX 2 (FCD 2): FA-CHP (1 mg)-CHP (4 mg)-DOX (0.03 mg) in 1 ml PBS. Drug mixtures with other composition were also tested essentially by the same procedure.
The culture medium was removed to 15 ml centrifugation tube, and cells remained attached to the dish were removed with Sigma cell dissociation solution (non-enzymatic, in PBS) in the case of KB, and with 0.05% trypsin and 0.02% EDTA solution in the case of TIG-1-20. […] After mixing with pipetting, all cells were counted on improved Neubauer hematocytometer. Detached cells were also counted by the same procedure after adjusting the removed medium to 2 ml.

| Compound | solubility in PBS [1] | TIG-1-20 cell death / proliferation (cell number counting) (TIG-1-20 cells) |
| --- | --- | --- |
| folate modified cholesterol-bearing pullulan [FA-CHP] | easily soluble | – |
| COc1cccc2c1C(=O)c1c(O)c3c(c(O)c1C2=O)C[C@@](O)(C(=O)CO)C[C@@H]3O[C@H]1C[C@H](N)[C@H](O)[C@H](C)O1 [DOX, Doxorubicin] | – | completely killed cell proliferation |
